How the values were obtained:
[1] = system: bovine collagen alpha1 (IX) in bovine nasal cartilage explants
[2] = target: human collagen alpha1 (IX) in human articular cartilage (UniProt P20849)
Chain of human collagen alpha1 (IX) in human articular cartilage (P20849 24-921): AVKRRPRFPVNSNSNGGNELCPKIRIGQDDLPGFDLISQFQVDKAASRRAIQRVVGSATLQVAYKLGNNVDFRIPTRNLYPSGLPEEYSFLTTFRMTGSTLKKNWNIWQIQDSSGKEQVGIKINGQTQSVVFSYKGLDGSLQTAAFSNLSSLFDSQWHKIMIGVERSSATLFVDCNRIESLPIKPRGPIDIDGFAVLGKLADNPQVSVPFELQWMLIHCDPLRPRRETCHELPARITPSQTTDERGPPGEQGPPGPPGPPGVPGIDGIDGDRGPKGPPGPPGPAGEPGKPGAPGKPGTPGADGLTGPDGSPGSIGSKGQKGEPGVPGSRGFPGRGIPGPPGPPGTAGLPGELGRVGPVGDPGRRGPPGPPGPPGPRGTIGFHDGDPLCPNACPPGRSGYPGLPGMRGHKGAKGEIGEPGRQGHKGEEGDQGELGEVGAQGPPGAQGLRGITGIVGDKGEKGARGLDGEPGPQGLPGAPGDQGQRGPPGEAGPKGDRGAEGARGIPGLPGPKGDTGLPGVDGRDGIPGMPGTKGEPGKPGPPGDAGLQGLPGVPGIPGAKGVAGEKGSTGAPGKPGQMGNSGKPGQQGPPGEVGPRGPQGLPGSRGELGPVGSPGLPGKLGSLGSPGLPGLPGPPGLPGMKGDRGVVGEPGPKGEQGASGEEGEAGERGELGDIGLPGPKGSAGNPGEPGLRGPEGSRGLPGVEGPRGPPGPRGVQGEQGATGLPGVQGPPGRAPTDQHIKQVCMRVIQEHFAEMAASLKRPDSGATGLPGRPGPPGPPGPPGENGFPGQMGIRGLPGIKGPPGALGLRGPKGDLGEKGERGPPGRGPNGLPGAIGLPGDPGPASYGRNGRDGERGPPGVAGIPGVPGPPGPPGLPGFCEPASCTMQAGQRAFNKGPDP

Substance: matrix metalloproteinase 13 (MMP-13)
- cleavage of collagen alpha1 (IX) in cartilage explants (Western blot and LC-MS of released fragments) [1]: Bovine nasal cartilage explants were digested with MMP-13 and indeed the enzyme cleaved collagen α1 (IX)
- cleavage of collagen alpha1 (IX) in human articular cartilage (Western blot and LC-MS of the released 30 kD fragment) [2]: a peptide representing a potentially new cleavage site CHELPARITPSQ^263-COOH (SEQ ID NO:6) NH2-TTDERGPP- (SEQ ID NO:7)

Source: patent publication US20080220459
